We go through six molecules from article PMC2535662, “Identification of COUP-TFII Orphan Nuclear Receptor as a Retinoic Acid–Activated Receptor” (PLoS Biology, 2008).

The term EC50 denotes the concentration at which the effect is half-maximal. A higher EC50 goes with weaker potency.

For data set [1], the target named is T1, COUP-TFII (Homo sapiens, UniProt P24468, C174S).
T1 construct: gene NR2F2; LBD (residues 173–414 with C174S mutation), 6X His-GST fusion protein
T1 sequence (P24468 173-414 C174S): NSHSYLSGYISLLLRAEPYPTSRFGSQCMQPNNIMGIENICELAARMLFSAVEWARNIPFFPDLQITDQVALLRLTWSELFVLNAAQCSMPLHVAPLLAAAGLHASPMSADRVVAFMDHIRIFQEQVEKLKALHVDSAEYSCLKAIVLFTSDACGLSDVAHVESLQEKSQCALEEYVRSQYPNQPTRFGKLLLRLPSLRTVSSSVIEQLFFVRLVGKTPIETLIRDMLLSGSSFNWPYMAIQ
Kind of data set: AlphaScreen ligand-dependent coactivator peptide recruitment to purified LBD; also NGFI-A luciferase reporter in COS-7 cells. The class given is binding. For orientation: Alpha assays give light when donor and acceptor beads are brought close together.

Data set [2] has as its target full-length COUP-TFII (mouse expression plasmid) (mouse) (UniProt P43135).
Data set [3] deals with the molecule itself. The data set can be described thus: crystal structure; ligand-free LBD, no cofactor peptide; hanging drops at 20 °C, well buffer 1.3 M or 1.5 M imidazole pH 5.6 and 1% Pluronic F68; space group C2, one LBD per asymmetric unit, symmetric dimer through crystal packing.
The target of data set [4] is COUP-TFII L364A/L365A double mutant (mouse) (UniProt P43135).
Data set [5] addresses T2, 6X His-GST-COUP-TFII LBD fusion protein (human, UniProt P24468 173-414, C174S).
T2 construct: The limits and C174S come from the protein preparation paragraph; also called receptor LBD; source: E. coli BL21 (DE3), purified as a 6X His-GST fusion protein; not shown: 6x Histidine, N-terminal, kept; GST, N-terminal, kept
T2 sequence (looked up): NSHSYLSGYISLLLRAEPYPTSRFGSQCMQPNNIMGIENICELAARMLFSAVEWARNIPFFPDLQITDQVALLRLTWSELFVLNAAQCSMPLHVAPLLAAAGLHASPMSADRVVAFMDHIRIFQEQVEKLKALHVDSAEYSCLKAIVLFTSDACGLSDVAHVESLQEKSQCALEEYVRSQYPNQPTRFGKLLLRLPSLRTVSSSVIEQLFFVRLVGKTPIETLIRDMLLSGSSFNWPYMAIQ
Kind of data set: AlphaScreen or HTRF; approximately 0.4 μM 6X His-GST receptor LBD and 0.1 μM biotinylated peptide, 20 μg/ml donor and acceptor beads; 50 mM MOPS, 50 mM NaF, 50 mM CHAPS, 0.1 mg/ml bovine serum albumin, pH 7.4; with 50 μM 9-cis-retinoic acid. As to conditions: both partners purified.

Where no end group is shown, it is not given here.

As to `CC1=C(/C=C/C(C)=C\C=C\C(C)=C\C(=O)O)C(C)(C)CCC1` [9cRA, 9-cis-retinoic acid], the EC50 in data set [1] worked out at 17 µM.
On the same count and under the same terms, then `CC1=C(/C=C/C(C)=C/C=C/C(C)=C/C(=O)O)C(C)(C)CCC1` [ATRA, all-trans-retinoic acid], with 26 µM.
Turning to “SRC-3 (wild type) (from UniProt Q9Y6Q9 1-1424) (natural protein)”, the NGFI-A promoter luciferase reporter in COS-7 cells, COUP-TFII cotransfected with SRC-3, relative to COUP-TFII alone in data set [2] was > 2 fold.

B1: human COUP-TFII ligand-binding domain (residues 173–414, C174S), tag cleaved (domain or fragment, UniProt P24468 173-414, looked up)
chain: NSHSYLSGYISLLLRAEPYPTSRFGSQCMQPNNIMGIENICELAARMLFSAVEWARNIPFFPDLQITDQVALLRLTWSELFVLNAAQCSMPLHVAPLLAAAGLHASPMSADRVVAFMDHIRIFQEQVEKLKALHVDSAEYSCLKAIVLFTSDACGLSDVAHVESLQEKSQCALEEYVRSQYPNQPTRFGKLLLRLPSLRTVSSSVIEQLFFVRLVGKTPIETLIRDMLLSGSSFNWPYMAIQ
notes: Ligand-free; One LBD per asymmetric unit; The model lacks 13 residues between α1 and α3, 17 residues between α5 and α6, and the C-terminal seven residues; also called COUP-TFII LBD; apo-COUP-TFII; source: E. coli BL21 (DE3), purified (glutathione-sepharose, thrombin cleavage, Ni2+ chelating sepharose); not shown: 6x Histidine, N-terminal, cleaved; GST, N-terminal, cleaved
B1: the binding result in data set [3] is “binds”.

B2: COUP-TFII L364A/L365A double mutant (natural protein)
chain: MAMVVSTWRDPQDEVPGSQGSQASQAPPVPGPPPGAPHTPQTPGQGGPASTPAQTAAGGQGGPGGPGSDKQQQQQHIECVVCGDKSSGKHYGQFTCEGCKSFFKRSVRRNLSYTCRANRNCPIDQHHRNQCQYCRLKKCLKVGMRREAVQRGRMPPTQPTHGQFALTNGDPLNCHSYLSGYISLLLRAEPYPTSRFGSQCMQPNNIMGIENICELAARMLFSAVEWARNIPFFPDLQITDQVALLRLTWSELFVLNAAQCSMPLHVAPLLAAAGLHASPMSADRVVAFMDHIRIFQEQVEKLKALHVDSAEYSCLKAIVLFTSDACGLSDVAHVESLQEKSQCALEEYVRSQYPNQPTRFGKLAARLPSLRTVSSSVIEQLFFVRLVGKTPIETLIRDMLLSGSSFNWPYMAIQ
B2: the activation of the NGFI-A promoter luciferase reporter in COS-7 cells, relative to wild-type COUP-TFII in data set [4] was determined as 20%.
For the molecule AENQRGPLESKGHKKLLQLLTSS (also: biotinylated, position not given here) [biotinylated SRC3–1 peptide], in data set [5], the binding result is on record as “binds”.
